Entries after “also recorded” stand apart in the source; their conditions may differ.
How the values were obtained:
[1] = test system: ischemia-reperfusion injury in mice; assay: Serum creatinine 24 h after bilateral renal artery clamping, NGAL intravenous; format: in vivo
Method: (§1) Purified endotoxin-free NGAL was administered either intravenously into mice via tail vein injections, subcutaneously, or intraperitoneally. In preliminary studies, animals were treated with three different concentrations of NGAL (50, 100, or 250 μg of a 250 μg/100 solution), subjected to 30 minutes of bilateral renal artery clamping one hour later, and examined after 24 hours of reflow. […] All subsequent studies as reported here were carried out using the 250 μg dose of NGAL. Comparisons were made between five different animal groups: non-ischemic controls (n=8), ischemic controls pre-treated with saline alone (n=8), NGAL pre-treated one hour prior to renal artery clamping (n=6), NGAL treated during renal artery clamping (n=6), and NGAL treated one hour post renal artery clamping (n=6).
(§2) Male C57BL/6 mice (20-25 gr; Charles River) were anesthetized with intraperitoneal pentobarbital (50 mg/kg) and placed on a heating pad under a warming light to maintain 37© core body temperature. Kidneys were exposed through an abdominal section and the right kidney was either removed or its vascular pedicle and ureter ligated. The vascular pedicle of the left kidney or both kidneys was clamped by a microaneurysm clip (Kent Scientific) for 30 minutes after right nephrectomy. This period of ischemia generated reproducible renal injury but minimized mortality. During the procedure, PBS (0.5 ml) was used to dampen the peritoneum. The animal was closed with 5-0 Nylon. Saline, NGAL, retinol-loaded retinol binding protein (RBP), enterochelin, or desferroxamine mesylate (DFO) were injected into the peritoneum or subcutaneously 15 min. prior to ischemia or 1-2 hr after reperfusion.
For some studies, the mice were allowed to recover in a warmed cage, and timed urine collections were obtained. […] The mice were killed, the kidneys perfusion fixed in situ with 4% paraformaldehyde in PBS, and both kidneys harvested. One half of each kidney was snap frozen in liquid nitrogen and stored at −70° C. until further processing; a sample was fixed in formalin, paraffin-embedded, and sectioned (4 μm). Paraffin sections were stained with hematoxylin-eosin and examined histologically. The other half of each kidney was embedded in OCT compound (Tissue-Tek) and frozen sections (4 μm) obtained for immunohistochemistry.

N-cadherin = N-cadherin immunofluorescence and immunoblot in ischemic kidney; format: in vivo, mice; details: pre-treatment with NGAL, 6 or 24 hours of reperfusion
Description: (§3) After 6 or 24 hr of reperfusion, heparinized plasma, urine and kidney samples were obtained to measure NGAL (polyclonal 1:500), Heme oxygenase-1 (Stressgen, 1:2000), E-cadherin (BD Transduction Labs, 1:2000), N-cadherin (BD Transduction Labs, 1:3000) and GAPDH (Chemicon International, 1:3000) using immunoblots. Plasma was also used for creatinine and blood urea nitrogen colorimetric assays. Sagittal sections of the kidney were fixed in 4% formalin, or were snap frozen for mRNA and protein analysis. Paraffin-embedded sections (5 μm) were stained with hematoxylin-eosin or by an in situ kit (Fluorescein-TUNEL, Roche) for apoptotic nuclei or for total nuclei (Toprol, Molecular Probes). For cell proliferation analysis, BrdU was injected into the peritoneum 1 hour before sacrifice, and cryostat sections were stained with anti-BrdU (Roche) according to the manufacturer.

[2] = Cofactor-dependent ^55Fe binding to NGAL (10 kDa filter retention)
Method: The urine fraction was obtained by passing fresh urine sequentially through 10 kDa and 3 kDa membranes (YM-10 and YM-3, Amicon). The mixture was then washed three times on 10 kDa membrane (YM-10, Amicon). Iron-free enterochelin-loaded NGAL (rather than NGAL without siderophore) served as a positive control for iron capture. Ferric citrate (1 mM) or iron-loaded enterochelin (Sid:Fe, 50 μM) were used as competitors of ^55Fe binding.

[3] = test system: mouse model of ATN or ischemia/reperfusion injury; assay: Mouse model of ATN (30 min clamp, contralateral nephrectomy): plasma creatinine; format: in vivo, mice
Method: as §2, §3

heme oxygenase-1 (HO-1) = assay: Heme oxygenase-1 immunoblot of kidney; format: in vivo, mice
Description: as §3

tubule epithelial cells = assay: PCNA proliferation assay on kidney sections; format: in vivo, mice; details: 24 h reflow
Method: as §1
For detection of proliferating cells, sections were incubated with a monoclonal antibody to Proliferating Cell Nuclear Antigen (PCNA, 1:500 dilution, Upstate Biotechnology), and detection accomplished by immunoperoxidase staining as recommended by the manufacturer (ImmunoCruz Staining System, Santa Cruz Biotechnology). Slides were examined in a blinded fashion, and proliferation was quantified by counting the number of PCNA positive cells per 100 cells counted in an average of five high power (40×) fields in each section.

B1: NGAL: Purified endotoxin-free recombinant NGAL expressed as GST fusion protein in bacteria, thrombin cleaved (protein, UniProt P80188 21-198, looked up)
Neutrophil …: QDSTSDLIPAPPLSKVPLQQNFQDNQFQGKWYVVGLAGNAILREDKDPQKMYATIYELKEDKSYNVTSVLFRKKKCDYWIRTFVPGCQPGEFTLGNIKSYPGLTSYLVRVVSTNYNQHAMVFFKKVSQNREYFKITLYGRTKELTSELKENFIRFSKSLGLPENHIVFPVPIDQCIDG
protection from the tubular damage and azotemia ([1]; 250 μg NGAL one hour before 30 min bilateral renal artery clamping, 24 h reflow, vs saline, doses 50, 100, 250 μg tested): significant protection from the tubular damage and azotemia | serum creatinine at 24 hours of reflow ([1]; NGAL 250 μg iv during ischemia (Dur NGAL)): 1.5±0.2 mg/di | serum creatinine at 24 hours of reflow ([1]; NGAL 250 μg iv one hour after ischemia (Post NGAL)): 1.95±0.2 mg/di | serum creatinine at 24 hours of reflow ([1]; NGAL 250 μg iv one hour before ischemia (Pre NGAL), saline 2.6±0.28, non-ischemic 0.65±0.13): 1.25 ± 0.3 mg/dL | N-cadherin expression in ischemic kidney (N-cadherin): preserved N-cadherin immunofluorescence, enhanced the expression of full length N-cadherin and reduced the appearance of its fragment; also recorded: rescued | NGAL molecules that bound iron ([2]; 30 μl of mouse urine): approximately 20% | retention of ^55Fe ([2]; with mouse urine fraction (<3,000 Da), washed on 10 kDa filter): permitted the retention of ^55Fe | plasma creatinine 24 hours after reperfusion ([3]; 1 μg NGAL (not protective)): 3.09 ± 0.11 mg/dL | plasma creatinine 24 hours after reperfusion ([3]; 100 μg NGAL 15 minutes before clamping, untreated 3.16±0.17): 1.18 ± 0.18 mg/dL | plasma creatinine ([3]; NGAL 2 hours after ischemia (no protective effect)): 3.12 ± 0.35 mg/dL | plasma creatinine 24 hours after reperfusion ([3]; NGAL one hour after reperfusion): 1.60 ± 0.28 mg/dL | protection against ATN (creatinine, FIG. 17A) ([3]; administered later than one hour after ischemia): ineffective | upregulation of HO-1 over ATN alone (heme oxygenase-1 (HO-1); ATN-injured mice, 10-100 μg NGAL, 24 hours after reperfusion): 5-10 fold | expression of HO-1 after NGAL injection (heme oxygenase-1 (HO-1); healthy mice (Sham), increasing doses of NGAL): much less than the NGAL-treated ATN-injured kidneys | PCNA-positive tubule epithelial cells per hundred cells (tubule epithelial cells; NGAL during ischemia): 14.9%±1.2 | PCNA-positive tubule epithelial cells per hundred cells (tubule epithelial cells; NGAL one hour after ischemia): 14.5%±1.2 | PCNA-positive tubule epithelial cells per hundred cells (tubule epithelial cells; NGAL one hour before ischemia, saline 4.4%±1.2): 19.1%±2.1

From US8247376B2, “NGAL for reduction and amelioration of ischemic and nephrotoxic injuries” (The Trustees of Columbia University, priority 2004, dated 2012)
